Experimental data taken from paper PMC11293645, “The two-component system TtrRS boosts Vibrio parahaemolyticus colonization by exploiting sulfur compounds in host gut” (PLOS Pathogens, 2024).

What follows are compounds tested against T1, TtrR (09830, response regulator) (UniProt Q87N66) (assay: EMSA). Conditions: not given.
T1 sequence: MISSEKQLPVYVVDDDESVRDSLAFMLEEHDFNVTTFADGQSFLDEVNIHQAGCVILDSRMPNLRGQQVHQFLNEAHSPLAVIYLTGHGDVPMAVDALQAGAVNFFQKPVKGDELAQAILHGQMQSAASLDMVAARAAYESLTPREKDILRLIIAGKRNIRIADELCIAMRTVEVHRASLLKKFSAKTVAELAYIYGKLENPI

Row | Compound | binding
1 | CGCCCTGAGCTAAAGATGCAAAGACAACCAAGCACAGAATCCAAAACTGAAGCAACCGTGGCGTTTTGTTCATGATGAGTCGAATCGTTCCTTCGAAAATAATGAAGCAAGAATAACAGCTACCTTCCGTAAACCACATTTGTTTTAGATCAACTTTGATCTGGGTATTATATCGACGTCGCAGCGCATTTCTCACAATGGAATCAGTCAGTTCAAATTCAACTAACAGCAGGTGAGTT (double strand) [PttrB-Δbox] | no binding
2 | GCTGACTCACTTTAATTGTTATTAATATCTCCAAGTGTCTACTGTGATAGTGACTTGGGTGCTGTATTGTCGGCTTTGTCAATAACTAAAGGTATTATATTTAGAGGATGTGAAGAGCTGCTAAATGGCAGCTCTTCAGGTTTGGTTGTCTACTAAGCTTTGCGGATTTTGGCTGGTAATGATTGGCGAGCAGCGGCTCCTACCACCCAATCTAACAACACGCCTTTCCCTTCTCGG (double strand) [PtsdB-Δbox] | no binding
3 | GCTGACTCACTTTAATTGTTATTAATATCTCCAAGTGTCTACTGTGATAGTGACTTGGGTGCTGTATTGTCGGCTTTGTCAATAACTAAAGGTATTGTGGATTTCCACATATTTAGAGGATGTGAAGAGCTGCTAAATGGCAGCTCTTCAGGTTTGGTTGTCTACTAAGCTTTGCGGATTTTGGCTGGTAATGATTGGCGAGCAGCGGCTCCTACCACCCAATCTAACAACACGCCTTTCCCTTCTCGG (double strand) [P09855 (PtsdB, tsdBA promoter)] | binds
4 | CGCCCTGAGCTAAAGATGCAAAGACAACCAAGCACAGAATCCAAAACTGAAGCAACCGTGGCGTTTTGTTCATGATGAGTCGAATCGTTCCTTCGAAAATAATGAAGCAAGAATAACAGCTACCTTCCGTAAACCACATTTGTTTTAGATCAACTTTGATCTGGGTATGTGGAAATCCACTATATCGACGTCGCAGCGCATTTCTCACAATGGAATCAGTCAGTTCAAATTCAACTAACAGCAGGTGAGTT (double strand) [PttrB (ttrBCA promoter)] | binds
5 | CAATACCTGCAATGGGGACCAACGCGGCACCCGCTGTAATGGCGCTAAGAAAGCGACGTTTGGTGGAATCCATAACTCACCTGCTGTTAGTTGAATTTGAACTGACTGATTCCATTGTGAGAAATGCGCTGCGACGTCGATATAGTGGATTTCCACATACCCAGATCAAAGTTGATCTAAAACAAATGTGGTTTACGGAAGGTAGCTGTTATTCTTGCTTCATTATTTTCGAAGGAACGATTCGACTCATC (double strand) [PttrS (ttrRS promoter)] | binds

What follows are compounds tested against T2, TtrBCA (Vibrio parahaemolyticus, UniProt Q87N61) (assay: HPLC of cultures, wild type vs deletion and complemented strains). Conditions: M9 medium, 10 mM sodium tetrathionate, micro-aerobic, 37 °C; whole-cell cultures; reduction to thiosulfate.
T2 construct: gene VP2014; native complex in V. parahaemolyticus cells; wild type, ttrA deletion and pBAD24-complemented strains; with Tetrathionate reductase subunit B; Tetrathionate reductase subunit C
Assay type: cell-based

T2 sequence (Q87N62 entry or part of it): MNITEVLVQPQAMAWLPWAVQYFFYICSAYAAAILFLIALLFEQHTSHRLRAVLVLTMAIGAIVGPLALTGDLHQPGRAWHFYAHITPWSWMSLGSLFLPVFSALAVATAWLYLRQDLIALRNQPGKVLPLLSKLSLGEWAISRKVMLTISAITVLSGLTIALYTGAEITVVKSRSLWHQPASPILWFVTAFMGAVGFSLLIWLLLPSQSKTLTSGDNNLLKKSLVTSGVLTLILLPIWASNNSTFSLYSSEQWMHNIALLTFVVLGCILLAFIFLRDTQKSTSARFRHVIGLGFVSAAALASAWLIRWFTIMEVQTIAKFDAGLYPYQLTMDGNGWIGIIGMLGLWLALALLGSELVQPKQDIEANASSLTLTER
T2 sequence (Q87N63 entry or part of it, further chain): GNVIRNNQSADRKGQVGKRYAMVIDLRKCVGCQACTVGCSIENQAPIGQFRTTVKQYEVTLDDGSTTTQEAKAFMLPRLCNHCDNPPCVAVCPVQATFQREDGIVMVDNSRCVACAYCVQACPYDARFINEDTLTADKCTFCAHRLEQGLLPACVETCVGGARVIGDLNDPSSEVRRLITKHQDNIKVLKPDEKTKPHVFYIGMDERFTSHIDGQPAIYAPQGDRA
T2 sequence (Q87N61 entry or part of it): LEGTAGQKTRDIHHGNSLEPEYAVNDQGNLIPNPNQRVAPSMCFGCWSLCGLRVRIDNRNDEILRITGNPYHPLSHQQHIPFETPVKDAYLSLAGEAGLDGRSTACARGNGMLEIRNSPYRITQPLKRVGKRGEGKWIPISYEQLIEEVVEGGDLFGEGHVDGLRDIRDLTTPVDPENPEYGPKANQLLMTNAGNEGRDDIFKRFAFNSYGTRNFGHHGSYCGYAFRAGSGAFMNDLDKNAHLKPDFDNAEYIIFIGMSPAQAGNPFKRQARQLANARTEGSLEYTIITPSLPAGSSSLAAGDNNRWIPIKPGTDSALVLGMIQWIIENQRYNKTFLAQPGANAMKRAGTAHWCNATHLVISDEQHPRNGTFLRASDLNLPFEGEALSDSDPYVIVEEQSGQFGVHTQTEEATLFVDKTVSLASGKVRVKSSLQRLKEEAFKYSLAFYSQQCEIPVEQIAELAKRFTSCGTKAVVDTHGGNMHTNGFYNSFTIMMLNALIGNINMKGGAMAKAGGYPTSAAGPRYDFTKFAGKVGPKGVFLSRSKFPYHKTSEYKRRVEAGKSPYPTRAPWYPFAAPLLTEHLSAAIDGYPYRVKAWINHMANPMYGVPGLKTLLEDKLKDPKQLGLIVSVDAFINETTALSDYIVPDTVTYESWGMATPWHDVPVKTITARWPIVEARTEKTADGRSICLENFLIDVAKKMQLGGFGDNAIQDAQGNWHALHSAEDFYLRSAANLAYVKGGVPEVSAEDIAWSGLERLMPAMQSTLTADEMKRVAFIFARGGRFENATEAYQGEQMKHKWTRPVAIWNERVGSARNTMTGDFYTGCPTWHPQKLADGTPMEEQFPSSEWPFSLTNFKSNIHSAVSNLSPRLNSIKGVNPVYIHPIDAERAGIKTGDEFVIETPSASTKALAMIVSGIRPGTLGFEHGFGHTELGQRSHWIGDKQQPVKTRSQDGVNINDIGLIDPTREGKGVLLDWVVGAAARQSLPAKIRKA

Row | Compound | HPLC of cultures, wild type vs deletion and complemented strains
6 | O=S(=O)(O)SSS(=O)(=O)O [tetrathionate] | confirming that ttrBCA is essential for tetrathionate reduction
